Measurements from the supplement of paper PMC5998384.

How the values were obtained:
HeLa Kyoto [1] = test: solubility change mitosis vs G1/S (difference of NP-40 vs SDS log2 ratios) (log2 ratio difference); higher = more soluble in mitosis
HeLa Kyoto [2] = test: solubility in G1/S (NP-40 vs SDS abundance) (log2 ratio); higher = more soluble; conditions: cell cycle stage: G1/S
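Throughout, for solubility change mitosis vs G1/S (difference of NP-40 vs SDS log2 ratios): synchronized HeLa Kyoto cells (double thymidine block for G1/S, nocodazole release for mitosis), protein amounts in NP-40 versus SDS lysates quantified by mass spectrometry, three biological replicates.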
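Throughout, for solubility in G1/S (NP-40 vs SDS abundance): HeLa Kyoto cells arrested at G1/S by double thymidine block, proteins quantified by TMT10plex mass spectrometry in mild NP-40 versus SDS extracts, three biological replicates.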

Chain of INPP5B (chain, as listed by the source): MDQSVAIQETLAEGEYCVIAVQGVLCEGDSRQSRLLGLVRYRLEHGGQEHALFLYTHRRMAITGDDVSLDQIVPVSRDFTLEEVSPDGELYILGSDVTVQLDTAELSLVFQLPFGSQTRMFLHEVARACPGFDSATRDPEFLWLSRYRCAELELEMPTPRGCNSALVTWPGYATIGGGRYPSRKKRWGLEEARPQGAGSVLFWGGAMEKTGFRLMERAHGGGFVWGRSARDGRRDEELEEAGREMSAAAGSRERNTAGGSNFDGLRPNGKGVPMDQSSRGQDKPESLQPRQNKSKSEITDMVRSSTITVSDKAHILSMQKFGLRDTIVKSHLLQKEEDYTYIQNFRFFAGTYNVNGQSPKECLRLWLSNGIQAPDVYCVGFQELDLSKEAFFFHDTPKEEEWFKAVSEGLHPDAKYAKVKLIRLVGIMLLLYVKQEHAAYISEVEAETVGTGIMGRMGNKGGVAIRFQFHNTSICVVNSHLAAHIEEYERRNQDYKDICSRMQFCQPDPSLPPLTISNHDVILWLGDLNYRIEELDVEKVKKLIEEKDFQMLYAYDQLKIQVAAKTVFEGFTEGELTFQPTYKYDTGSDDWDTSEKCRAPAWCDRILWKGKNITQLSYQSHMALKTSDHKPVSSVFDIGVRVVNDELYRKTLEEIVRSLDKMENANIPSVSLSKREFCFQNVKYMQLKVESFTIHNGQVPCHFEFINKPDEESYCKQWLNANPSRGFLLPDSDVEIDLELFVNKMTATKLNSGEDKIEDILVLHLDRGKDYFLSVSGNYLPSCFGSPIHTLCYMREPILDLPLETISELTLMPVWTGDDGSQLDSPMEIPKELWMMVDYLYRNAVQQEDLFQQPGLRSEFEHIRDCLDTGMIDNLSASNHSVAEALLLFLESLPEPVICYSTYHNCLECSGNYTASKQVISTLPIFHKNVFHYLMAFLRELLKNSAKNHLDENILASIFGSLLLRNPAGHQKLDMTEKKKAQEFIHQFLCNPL

INPP5B
solubility change mitosis (log2) (HeLa Kyoto [1]): -0.0113 | solubility in G1/S (log2) (HeLa Kyoto [2]): -0.143

KDM5A
solubility change mitosis (log2) (HeLa Kyoto [1]): 0.00727 | solubility in G1/S (log2) (HeLa Kyoto [2]): -0.206

KIAA0586
solubility change mitosis (log2) (HeLa Kyoto [1]): 0.00667 | solubility in G1/S (log2) (HeLa Kyoto [2]): -0.0749

KMT2B
solubility change mitosis (log2) (HeLa Kyoto [1]): 0.243 | solubility in G1/S (log2) (HeLa Kyoto [2]): -0.355

MAAAAEERMAEEGGGGQGDGGSSLASGSTQRQPPPPAPQHPQPGSQALPAPALAPDQLPQNNTLVALPIVAIENILSFMSYDEISQLRLVCKRMDLVCQRMLNQGFLKVERYHNLCQKQVKAQLPRRESERRNHSLARHADILAAVETRLSLLNMTFMKYVDSNLCCFIPGKVIDEIYRVLRYVNSTRAPQRAHEVLQELRDISSMAMEYFDEKIVPILKRKLPGSDVSGRLMGSPPVPGPSAALTTMQLFSKQNPSRQEVTKLQQQVKTNGAGVTVLRREISELRTKVQEQQKQLQDQDQKLLEQTQIIGEQNARLAELERKLREVMESAVGNSSGSGQNEESPRKRKKATEAIDSLRKSKRLRNRK [FBXO28]
solubility change mitosis (log2) (HeLa Kyoto [1]): 0.262 | solubility in G1/S (log2) (HeLa Kyoto [2]): 0.375

MAAANPWDPASAPNGAGLVLGHFIASGMVNQEMLNMSKKTVSCFVNFTRLQQITNIQAEIYQKNLEIELLKLEKDTADVVHPFFLAQKCHTLQSMNNHLEAVLKEKRSLRQRLLKPMCQENLPIEAVYHRYMVHLLELAVTFIERLETHLETIRNIPHLAANLKKMNQALAKMDILVTETEELAENILKWRKQQNEVSSCIPKILAEESYLYKHDIIMPPLPFTSKVHVQTINAK [HAUS2]
solubility change mitosis (log2) (HeLa Kyoto [1]): -0.117 | solubility in G1/S (log2) (HeLa Kyoto [2]): 0.261

MAAAVAAPLAAGGEEAAATTSVPGSPGLPGRRSAERALEEAVATGTLNLSNRRLKHFPRGAARSYDLSDITQADLSRNRFPEVPEAACQLVSLEGLSLYHNCLRCLNPALGNLTALTYLNLSRNQLSLLPPYICQLPLRVLIVSNNKLGALPPDIGTLGSLRQLDVSSNELQSLPSELCGLSSLRDLNVRRNQLSTLPEELGDLPLVRLDFSCNRVSRIPVSFCRLRHLQVILLDSNPLQSPPAQVCLKGKLHIFKYLSTEAGQRGSALGDLAPSRPPSFSPCPAEDLFPGHRYDGGLDSGFHSVDSGSKRWSGNESTDEFSELSFRISELAREPRGPRERKEDGSADGDPVQIDFIDSHVPGEDEERGTVEEQRPPELSPGAGDRERAPSSRREEPAGEERRRPDTLQLWQERERRQQQQSGAWGAPRKDSLLKPGLRAVVGGAAAVSTQAMHNGSPKSSASQAGAAAGQGAPAPAPASQEPLPIAGPATAPAPRPLGSIQRPNSFLFRSSSQSGSGPSSPDSVLRPRRYPQVPDEKDLMTQLRQVLESRLQRPLPEDLAEALASGVILCQLANQLRPRSVPFIHVPSPAVPKLSALKARKNVESFLEACRKMGVPEADLCSPSDLLQGTARGLRTALEAVKRVGGKALPPLWPPSGLGGFVVFYVVLMLLLYVTYTRLLGS [LRCH4]
solubility change mitosis (log2) (HeLa Kyoto [1]): -0.305 | solubility in G1/S (log2) (HeLa Kyoto [2]): 0.302

MAAEEVLQTVDHYKTEIERLTKELTETTHEKIQAAEYGLVVLEEKLTLKQQYDELEAEYDSLKQELEQLKEAFGQSFSIHRKVAEDGETREETLLQESASKEAYYLGKILEMQNELKQSRAVVTNVQAENERLTAVVQDLKENNEMVELQRIRMKDEIREYKFREARLLQDYTELEEENITLQKLVSTLKQNQVEYEGLKHEIKRFEEETVLLNSQLEDAIRLKEIAEHQLEEALETLKNEREQKNNLRKELSQYISLNDNHISISVDGLKFAEDGSEPNNDDKMNGHIHGPLVKLNGDYRTPTLRKGESLNPVSDLFSELNISEIQKLKQQLMQVEREKAILLANLQESQTQLEHTKGALTEQHERVHRLTEHVNAMRGLQSSKELKAELDGEKGRDSGEEAHDYEVDINGLEILECKYRVAVTEVIDLKAEIKALKEKYNKSVENYTDEKAKYESKIQMYDEQVTSLEKTTKESGEKMAHMEKELQKMTSIANENHSTLNTAQDELVTFSEELAQLYHHVCLCNNETPNRVMLDYYRQSRVTRSGSLKGPDDPRGLLSPRLARRGVSSPVETRTSSEPVAKESTEASKEPSPTKTPTISPVITAPPSSPVLDTSDIRKEPMNIYNLNAIIRDQIKHLQKAVDRSLQLSRQRAAARELAPMIDKDKEALMEEILKLKSLLSTKREQIATLRAVLKANKQTAEVALANLKNKYENEKAMVTETMTKLRNELKALKEDAATFSSLRAMFATRCDEYVTQLDEMQRQLAAAEDEKKTLNTLLRMAIQQKLALTQRLEDLEFDHEQSRRSKGKLGKSKIGSPKVSGEASVTVPTIDTYLLHSQGPQTPNIRVSSGTQRKRQFSPSLCDQSRPRTSGASYLQNLLRVPPDPTSTESFLLKGPPSMSEFIQGHRLSKEKRLTVAPPDCQQPAASVPPQCSQLAGRQDCPTVSPDTALPEEQPHSSSQCAPLHCLSKPPHP [BICD1]
solubility change mitosis (log2) (HeLa Kyoto [1]): -0.259 | solubility in G1/S (log2) (HeLa Kyoto [2]): 0.652

MAAGCCGVKKQKLSSSPPSGSGGGGGASSSSHCSGESQCRAGELGLGGAGTRLNGLGGLTGGGSGSGCTLSPPQGCGGGGGGIALSPPPSCGVGTLLSTPAAATSSSPSSSSAASSSSPGSRKMVVSAEMCCFCFDVLYCHLYGYQQPRTPRFTNEPYPLFVTWKIGRDKRLRGCIGTFSAMNLHSGLREYTLTSALKDSRFPPMTRDELPRLFCSVSLLTNFEDVCDYLDWEVGVHGIRIEFINEKGSKRTATYLPEVAKEQGWDHIQTIDSLLRKGGYKAPITNEFRKTIKLTRYRSEKMTLSYAEYLAHRQHHHFQNGIGHPLPPYNHYS [AMMECR1]
solubility change mitosis (log2) (HeLa Kyoto [1]): -0.37 | solubility in G1/S (log2) (HeLa Kyoto [2]): 0.255

MAANSSGQGFQNKNRVAILAELDKEKRKLLMQNQSSTNHPGASIALSRPSLNKDFRDHAEQQHIAAQQKAALQHAHAHSSGYFITQDSAFGNLILPVLPRLDPE [INIP]
solubility change mitosis (log2) (HeLa Kyoto [1]): 0.407 | solubility in G1/S (log2) (HeLa Kyoto [2]): -0.135

MAAPCLLRQGRAGALKTMLQEAQVFRGLASTVSLSAESGKSEKGQPQNSKKQSPPKKPAPVPAEPFDNTTYKNLQHHDYSTYTFLDLNLELSKFRMPQPSSGRESPRH [NDUFV3]
solubility change mitosis (log2) (HeLa Kyoto [1]): -0.0477 | solubility in G1/S (log2) (HeLa Kyoto [2]): 0.224

MAAQAAAAAQAAAAQAAQAEAADSWYLALLGFAEHFRTSSPPKIRLCVHCLQAVFPFKPPQRIEARTHLQLGSVLYHHTKNSEQARSHLEKAWLISQQIPQFEDVKFEAASLLSELYCQENSVDAAKPLLRKAIQISQQTPYWHCRLLFQLAQLHTLEKDLVSACDLLGVGAEYARVVGSEYTRALFLLSKGMLLLMERKLQEVHPLLTLCGQIVENWQGNPIQKESLRVFFLVLQVTHYLDAGQVKSVKPCLKQLQQCIQTISTLHDDEILPSNPADLFHWLPKEHMCVLVYLVTVMHSMQAGYLEKAQKYTDKALMQLEKLKMLDCSPILSSFQVILLEHIIMCRLVTGHKATALQEISQVCQLCQQSPRLFSNHAAQLHTLLGLYCVSVNCMDNAEAQFTTALRLTNHQELWAFIVTNLASVYIREGNRHQEVLYSLLERINPDHSFPVSSHCLRAAAFYVRGLFSFFQGRYNEAKRFLRETLKMSNAEDLNRLTACSLVLLGHIFYVLGNHRESNNMVVPAMQLASKIPDMSVQLWSSALLRDLNKACGNAMDAHEAAQMHQNFSQQLLQDHIEACSLPEHNLITWTDGPPPVQFQAQNGPNTSLASLL [MAU2]
solubility change mitosis (log2) (HeLa Kyoto [1]): -0.0035 | solubility in G1/S (log2) (HeLa Kyoto [2]): -0.154

MAATDIARQVGEGCRTVPLAGHVGFDSLPDQLVNKSVSQGFCFNILCVGETGLGKSTLMDTLFNTKFEGEPATHTQPGVQLQSNTYDLQESNVRLKLTIVSTVGFGDQINKEDSYKPIVEFIDAQFEAYLQEELKIRRVLHTYHDSRIHVCLYFIAPTGHSLKSLDLVTMKKLDSKVNIIPIIAKADAISKSELTKFKIKITSELVSNGVQIYQFPTDDESVAEINGTMNAHLPFAVIGSTEELKIGNKMMRARQYPWGTVQVENEAHCDFVKLREMLIRVNMEDLREQTHTRHYELYRRCKLEEMGFKDTDPDSKPFSLQETYEAKRNEFLGELQKKEEEMRQMFVQRVKEKEAELKEAEKELHEKFDRLKKLHQDEKKKLEDKKKSLDDEVNAFKQRKTAAELLQSQGSQAGGSQTLKRDKEKKNNPWLCTE [SEPT6]
solubility change mitosis (log2) (HeLa Kyoto [1]): -0.0909 | solubility in G1/S (log2) (HeLa Kyoto [2]): 0.186
